According to patent US20250019737A1 (TECHNOLOGY INNOVATION MOMENTUM FUND ISRAEL LIMITED …, published 2025):

Target: T1, Ubiquitin R42E, R72E, untagged free mono-Ub (Homo sapiens (Human), UniProt P0CG47 1-76)
T1 construct: also called Ub R42E, R72E
Assay: SPR, immobilized His6-MBP-ENTH on Ni2+ chip, Ub mutant as analyte, single-site model

B1: His6-MBP-ENTH, ENTH domain of yeast Ent1(1-152) (other, yeast (Saccharomyces cerevisiae), UniProt Q12518 1-152, looked up, not shown: small tags and cut ends; large carriers)
chain: MSKQFVRSAKNLVKGYSSTQVLVRNATSNDNHQVSKDSLIELAEKSYDSADFFEIMDMLDKRLNDKGKYWRHIAKALTVIDYLIRFGSENCVLWCRENLYIIKTLKEFRHEDDEGIDQGQIVRVKAKELTALLSDDERLNEERNMNIKGRNR
notes: range 1-152; also called yeast ENTH
fold lower affinity than the wild-type complex: ~2.6 fold
